Reference: patent US20240262910A1
Numbering of substitutions follows the chain as printed.

How the values were obtained:
[1] = molecular target: cynomolgus monkey CD33 extracellular domain with 6xHis-tag (cynomolgus monkey); test: ELISA, hybridoma supernatant
[2] = molecular target: mouse CD33 extracellular domain with 6xHis-tag (mouse) (UniProt Q63994); test: ELISA, hybridoma supernatant
Sequence of mouse CD33 extracellular domain with 6xHis-tag (mouse) (Q63994 other isoform, or with tags, fused parts or gaps limits assumed): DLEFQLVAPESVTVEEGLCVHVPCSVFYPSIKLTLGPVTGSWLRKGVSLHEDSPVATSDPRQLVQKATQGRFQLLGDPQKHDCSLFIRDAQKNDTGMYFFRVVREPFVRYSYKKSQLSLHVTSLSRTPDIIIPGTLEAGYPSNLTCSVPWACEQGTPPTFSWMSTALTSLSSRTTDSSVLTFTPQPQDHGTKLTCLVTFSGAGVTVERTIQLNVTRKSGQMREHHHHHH

B1: 3-P14 (hybridoma antibody) (antibody, V domains shown)
VH: EVQLLESGGGLVQPGGSLRLSCAASGFTFSTYAMSWVRQAPGKGLEWVSAISGRGGSTYYTDSVKGRFTISRDNSKNTVSLQMNSLRAEDTAVYYCAGRGDYYYYYGMDVWGQGTTVTVSA
VL: DIVMTQSPLSSPVTLGQPASFSCRSSQSLVYSDGNTYLSWLQQRPGQPPRLLIYKISNRFSGVPDRFSGSGAGTDFTLKISRVEAEDVGVYYCMQSTQFPHTFGQGTKLEIK
- RLU [1]: 12700 RLU
- RLU [2]: 13700 RLU

B2: 1-A20 (antibody, V domains shown)
VH: QVQLQESGPGLVKPSETLSLTCTVSGDSISSYYWSWIRQPAGKGLEWIGRIYTSGNTNYNPSLKSRVTMSVDKSKNQFSLKLRSVTAADTAVYYCARDGDNRDSDAFDIWGQGTMVTVSS
VL: SPGTLSLSPGERATLSCRASQNISSSYLAWCQQKPGQAPRLFIYGTSRRATGIPDRFSGSGSGTDFTLTISRLEPEDFAVYYCQQYGSSPLTFGGGTKVEIK
- RLU [1]: 35500 RLU

B3: 1-H19 (antibody, V domains shown)
VH: B2 VH with D27G, S31T, K73T, F78L, D103N
VL: QSVLTQPPSVSGAPGQRVTISCTGSSSNIGAGYDVHWYQQLPGTAPKLLIYGNSNRPSGVPDRFSGSKSGTSASLAITGLQAEDEADYYCQSYDRSLSGWVFGGGTKLTVL
- RLU [1]: 22500 RLU
